# Reference: patent US20190055322A1
# Where “and” joins values, the source holds several entries; their conditions need not be identical. Equal values may be shown once.
# B1: Nanobody 275 (2G09-40GS-5H01) (VHH)
# chain: EVQLVESGGGLVQPGGSLRLSCAASGSFGDNYELYAMTWFRQAPGERRDFVASVTGDGSTSYADSVKDRFTISRDNAKKLMYLQMNSLKPEDTAVYYCRLLNYWGQGTLVTVSSGGGGSGGGGSGGGGSGGGGSGGGGSGGGGSGGGGSGGGGSEVQLVESGGGLVQPGGSLRLSCAASGSTLDYYAIGWFRQAPGKEREGVSCTSNSGSTYYGGSVKGRFTASRDNAKNTVYLQMNSLRPEDTAVYYCVATIGCATLGGTLDVQRYYYRGQGTLVTVSS
# B2: Nanobody 256 (13F07-40GS-5H01) (VHH)
# chain: EVQLVESGGGLVQAGGSLRLSCAASGNTFSTNPMYWYRQAEGKQRELVASISSRGITNYADSVRGRFSISRDNTKDTVYLQMNSLKPEDTAVYYCRLASLSSGTVYWGKGTLVTVSSGGGGSGGGGSGGGGSGGGGSGGGGSGGGGSGGGGSGGGGSEVQLVESGGGLVQPGGSLRLSCAASGSTLDYYAIGWFRQAPGKEREGVSCTSNSGSTYYGGSVKGRFTASRDNAKNTVYLQMNSLRPEDTAVYYCVATIGCATLGGTLDVQRYYYRGQGTLVTVSS
# B3: Nanobody 257 (13F07-40GS-2B10) (VHH)
# chain: EVQLVESGGGLVQAGGSLRLSCAASGNTFSTNPMYWYRQAEGKQRELVASISSRGITNYADSVRGRFSISRDNTKDTVYLQMNSLKPEDTAVYYCRLASLSSGTVYWGKGTLVTVSSGGGGSGGGGSGGGGSGGGGSGGGGSGGGGSGGGGSGGGGSEVQLVESGGGLVQPGGSLRLSCAASGSIFSINNMGWYRQAPGKQRELVTVVTSNLITTYADSVKGRFTISRDNAKNTVYLQMNSLKPEDTAVYYCNAWARSVGSVPYSQFWGQGTLVTVSS
# B4: Nanobody 261 (5H01-40GS-2B10) (VHH)
# chain: EVQLVESGGGLVQPGGSLRLSCAASGSTLDYYAIGWFRQAPGKEREGVSCTSNSGSTYYGGSVKGRFTASRDNAKNTVYLQMNSLRPEDTAVYYCVATIGCATLGGTLDVQRYYYRGQGTLVTVSSGGGGSGGGGSGGGGSGGGGSGGGGSGGGGSGGGGSGGGGSEVQLVESGGGLVQPGGSLRLSCAASGSIFSINNMGWYRQAPGKQRELVTVVTSNLITTYADSVKGRFTISRDNAKNTVYLQMNSLKPEDTAVYYCNAWARSVGSVPYSQFWGQGTLVTVSS
# B5: Nanobody 277 (5H01-40GS-11B09) (VHH)
# chain: EVQLVESGGGLVQPGGSLRLSCAASGSTLDYYAIGWFRQAPGKEREGVSCTSNSGSTYYGGSVKGRFTASRDNAKNTVYLQMNSLRPEDTAVYYCVATIGCATLGGTLDVQRYYYRGQGTLVTVSSGGGGSGGGGSGGGGSGGGGSGGGGSGGGGSGGGGSGGGGSEVQLVESGGGLVQAGGSLRLSCAASRLTFNHYNMGWFRQAPGKERERVAEVTWSGDKIYYVDSVKGRFTISRDNTPNPVYLYLQMNSLKPEDTAVYYCATAPRGLPYANGYWGQGTLVTVSS
# B6: Nanobody 259 (1E11-40GS-5H01) (VHH)
# chain: EVQLVESGGGLVQPGGSLRLSCAASGSTRSVNPMAWFRQAPGRQREWVATISRSGYATYADSVKGRFTISGDNAKSSVYLQMNSLKPEDTAVYYCVTGTYWGQGTLVTVSSGGGGSGGGGSGGGGSGGGGSGGGGSGGGGSGGGGSGGGGSEVQLVESGGGLVQPGGSLRLSCAASGSTLDYYAIGWFRQAPGKEREGVSCTSNSGSTYYGGSVKGRFTASRDNAKNTVYLQMNSLRPEDTAVYYCVATIGCATLGGTLDVQRYYYRGQGTLVTVSS
# B7: Nanobody 271 (7C10-40GS-14E10) (VHH)
# chain: EVQLVESGGGLVQAGGSLRLSCTASGRTLSSYTMGWFRQAPGTEREFVAAMTRSGFNTYYADSVKGRFTISRDSTENTMALQMSSLKPEDTAVYYCTAGRGLTSYRADYWGQGTLVTVSSGGGGSGGGGSGGGGSGGGGSGGGGSGGGGSGGGGSGGGGSEVQLVESGGGLVQPGGSLRLSCAASGRIFSINTMGWYRQAPGKQRELVAGVTINAITNYADSVKGRFTISRDNAKNTVWLQMNSLKPEDTAVYYCHAWARSSGSAPYSQNWGQGTLVTVSS
# B8: Nanobody 115 (11B09-40GS-13F07) (VHH)
# chain: EVQLVESGGGLVQAGGSLRLSCAASRLTFNHYNMGWFRQAPGKERERVAEVTWSGDKIYYVDSVKGRFTISRDNTPNPVYLYLQMNSLKPEDTAVYYCATAPRGLPYANGYWGQGTLVTVSSGGGGSGGGGSGGGGSGGGGSGGGGSGGGGSGGGGSGGGGSEVQLVESGGGLVQAGGSLRLSCAASGNTFSTNPMYWYRQAEGKQRELVASISSRGITNYADSVRGRFSISRDNTKDTVYLQMNSLKPEDTAVYYCRLASLSSGTVYWGKGTLVTVSS
# B9: 1E11-40GS-4G10 (VHH)
# chain: EVQLVESGGGLVQPGGSLRLSCAASGSTRSVNPMAWFRQAPGRQREWVATISRSGYATYADSVKGRFTISGDNAKSSVYLQMNSLKPEDTAVYYCVTGTYWGQGTLVTVSSGGGGSGGGGSGGGGSGGGGSGGGGSGGGGSGGGGSGGGGSEVQLVESGGGLVQAGGSLRLSCVISEDGVRNYDMGWFRQAPGKEREFVATINWSGGSTNYADSVKGRFTVSRDNAKNTMYLQMDSLKPEDTAVYYCVAAGFYNNYLRTAPNDWNDWGQGTQVTVSS
# B10: 1E11-40GS-5E02 (VHH)
# chain: EVQLVESGGGLVQPGGSLRLSCAASGSTRSVNPMAWFRQAPGRQREWVATISRSGYATYADSVKGRFTISGDNAKSSVYLQMNSLKPEDTAVYYCVTGTYWGQGTLVTVSSGGGGSGGGGSGGGGSGGGGSGGGGSGGGGSGGGGSGGGGSEVQLVESGGGLVQPGGSLRLSCAASGITLDSIAICWFRQAPGKEREGVSCSRGSDGSTYYADSVKGRFTISRVNAKNTVYLQMNSLKPEDTAVYYCAAAPSIFYSGGYFPSGMDYWGKGTQVTVSS
# B11: 5E02-40GS-14E10 (VHH)
# chain: EVQLVESGGGLVQPGGSLRLSCAASGITLDSIAICWFRQAPGKEREGVSCSRGSDGSTYYADSVKGRFTISRVNAKNTVYLQMNSLKPEDTAVYYCAAAPSIFYSGGYFPSGMDYWGKGTQVTVSSGGGGSGGGGSGGGGSGGGGSGGGGSGGGGSGGGGSGGGGSEVQLVESGGGLVQPGGSLRLSCAASGRIFSINTMGWYRQAPGKQRELVAGVTINAITNYADSVKGRFTISRDNAKNTVWLQMNSLKPEDTAVYYCHAWARSSGSAPYSQNWGQGTQVTVSS
# B12: 1E11-40GS-14B10 (VHH)
# chain: EVQLVESGGGLVQPGGSLRLSCAASGSTRSVNPMAWFRQAPGRQREWVATISRSGYATYADSVKGRFTISGDNAKSSVYLQMNSLKPEDTAVYYCVTGTYWGQGTLVTVSSGGGGSGGGGSGGGGSGGGGSGGGGSGGGGSGGGGSGGGGSEVQLVESGGGLVQPGGSLRLSCAASGRIFSINNMGWYHQAPGKQRELVATITMNGITTYADSVKGRFTISRDNAKNTVYLQMNSLKPEDTAVYYCSCWVRSSGGDPYRDYWGQGTQVTVSS
# B13: 5E02-40GS-1E11 (VHH)
# chain: EVQLVESGGGLVQPGGSLRLSCAASGITLDSIAICWFRQAPGKEREGVSCSRGSDGSTYYADSVKGRFTISRVNAKNTVYLQMNSLKPEDTAVYYCAAAPSIFYSGGYFPSGMDYWGKGTQVTVSSGGGGSGGGGSGGGGSGGGGSGGGGSGGGGSGGGGSGGGGSEVQLVESGGGLVQPGGSLRLSCAASGSTRSVNPMAWFRQAPGRQREWVATISRSGYATYADSVKGRFTISGDNAKSSVYLQMNSLKPEDTAVYYCVTGTYWGQGTLVTVSS
# Biological target: different PcrV variants and reference strain PAO1 (23 PcrV sequence variants, GST-PcrV-His6)
# Experiment: not given
row,Binder,EC50
1,B1,600 pM and 900 pM
2,B2,70 pM and 100 pM
3,B3,70 pM and 90 pM
4,B4,60 pM and 70 pM
5,B5,70 pM and 100 pM
6,B6,10 pM and 20 pM
7,B7,60 pM and 100 pM

# Biological target: PcrV of P. aeruginosa strain PA103 (on TTSS-induced bacteria) (Pseudomonas aeruginosa strain PA103)
# Experiment: cell-based or functional assay
row,Binder,"% inhibition in P3X63 cytotoxicity assay, extract 1/150 [%]"
1,B8,82
2,B9,67
3,B10,44
4,B11,48
5,B12,52
6,B13,60
